# Source: patent US20180088111A1 (published 2018)
# Assays:
# [1] = molecular target: hPD1(25-167)-Myc-TVMV-His (human) (UniProt Q15116); experiment: SPR (Biacore T200), hPD1(25-167)-His coupled to CM5 chip, MIH4 0.195-50 nM as analyte
# [2] = molecular target: hPD1(25-167)-Myc-TVMV-His (human) (UniProt Q15116); experiment: SPR (Biacore T200), hPD1(25-167)-His on chip, MIH4 analyte, in the presence of PDL-1 ('2M' [sic])
# [3] = molecular target: hPD1(25-167)-3S-IG (human) (UniProt Q15116); experiment: SPR (Biacore T200), hPD1(25-167)-3S-IG on chip, MIH4 analyte, no PDL-1
# [4] = molecular target: hPD1(25-167)-Myc-TVMV-His (human) (UniProt Q15116); experiment: SPR (Biacore T200), hPD1(25-167)-His on chip, MIH4 analyte, no PDL-1
# recombinant human PDL-1 = molecular target: T1, recombinant human PDL-1 (human, UniProt Q9NZQ7 19-239); experiment: SPR (ProteOn XPR36), hPD1(25-167)-His captured by His-tag on HTG chip, hPDL-1 0.125-2 µM as analyte, equilibrium analysis
# T1 construct: Bought (R&D Systems); whole entry named; also called hPDL-1; soluble human PDL-1
# T1 sequence (Q9NZQ7 19-239 limits assumed): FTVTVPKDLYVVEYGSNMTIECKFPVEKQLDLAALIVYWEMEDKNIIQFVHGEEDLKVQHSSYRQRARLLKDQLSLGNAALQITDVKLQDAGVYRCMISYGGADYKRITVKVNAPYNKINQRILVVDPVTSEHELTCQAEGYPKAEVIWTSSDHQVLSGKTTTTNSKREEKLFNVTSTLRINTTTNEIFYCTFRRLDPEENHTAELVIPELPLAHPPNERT
# Method: The surface was activated by injecting nickel (II) ions at 30 μl/min for 120 s. All analyses were performed at 25° C. in a PBS-0.05% TWEEN® solution.
# The surface was regenerated with 300 mM EDTA (pH 8.5) following BioRad's recommendations. The binding data were analyzed using the PROTEON MANAGER™ Software from Bio-Rad.
# Soluble, human PDL-1 was injected into the mobile phase as an analyte.
response level (RU) [1],Kd [2],koff [2],kon [2],Kd [3],koff [3],kon [3],Kd [4],koff [4],kon [4],Kd (recombinant human PDL-1),Molecule
0.2 to 49 RU,2.9 nM,0.00034 s⁻¹,120000 M⁻¹ s⁻¹,0.5 nM,0.00024 s⁻¹,480000 M⁻¹ s⁻¹,2.8 nM,0.00038 s⁻¹,130000 M⁻¹ s⁻¹,–,MIH4 (antibody)
–,–,–,–,–,–,–,–,–,–,2800 nM,"hPD1(25-167)-Myc-TVMV-His (receptor, glycosylated (HEK293 expression), range 25-167; Expressed in HEK293-6E cells; glycosylated monomer in solution by SEC-MALS; also called hPD1(25-167)-His; hPD-1(25-167)-His) LDSPDRPWNPPTFSPALLVVTEGDNATFTCSFSNTSESFVLNWYRMSPSNQTDKLAAFPEDRSQPGQDCRFRVTQLPNGRDFHMSVVRARRNDSGTYLCGAISLAPKAQIKESLRAELRVTERRAEVPTAHPSPSPRPAGQFQEQKLISEEDLGSSETVRFQGHHHHHH"
